# Laboratory results reported in patent publication US20200283521A1 (GRANULAR THERAPEUTICS, published 2020).
# Numbering of substitutions follows the chain as printed.
# B1: F-F2 (antibody, IgG1, V domains shown)
# VH: QVQLVQSGAEVKKPGASVKVSCKASGYTFTDYYMNWVRQAPGQGLEWMGRIYPGSGNTYYAQKFQGRVTMTRDTSTSTVYMELSSLRSEDTAVYYCARGVYYQDYWGQGTLVTVSS
# VL: DIQMTQSPSSLSASVGDRVTITCRASQGVRTNVAWFQQKPGKAPKSLIYAASSRQSGVPSRFSGSGSGTDFTLTISSLQPEDFATYYCQQYNSYPRTFGGGTKVEIK
# notes: IgG1; also called C-KIT-F-F2
# B2: D-A10 (antibody, IgG1, V domains shown)
# VH: B1 VH with Q103F, Y105T
# VL: B1 VL with V33L
# notes: IgG1; also called C-KIT-D-A10
# B3: F-C5 (antibody, IgG1, V domains shown)
# VH: B1 VH with Q103F, Y105E
# VL: B1 VL with V33L
# notes: IgG1; also called C-KIT-F-C5; F-05
# B4: MH11 (antibody, IgG1, V domains shown)
# VH: B1 VH with Q103Y
# VL: B1 VL with V29I, V33L, R54L, S93A
# notes: IgG1; also called C-KIT-MH11
# B5: C-B12 (antibody, IgG1, V domains shown)
# VH: B1 VH with Y102E, Q103F
# VL: B1 VL with T31N, V33L, S53Y
# notes: IgG1; also called C-KIT-C-B12
# B6: C-A7 (antibody, IgG1, V domains shown)
# VH: B1 VH with M48I, Q103F, Y105S
# VL: B1 VL with T31N, A50Y, R54L
# notes: IgG1; also called C-KIT-C-A7
# B7: E-E10 (antibody, IgG1, V domains shown)
# VH: B1 VH with Y101W, Q103F
# VL: B1 VL with A50S, R54L
# notes: IgG1; also called C-KIT-E-E10
# B8: MH5-DI, IgG1-3M format (antibody, V domains shown)
# VH: B1 VH with Q103Y
# VL: B1 VL with V29I, V33L, R54L, N92A, S93N
# B9: MH8 (antibody, IgG1, V domains shown)
# VH: B1 VH with Q103Y
# VL: B1 VL with V29I, V33L, A50S, R54L, N92S
# notes: IgG1
# B10: MH10 (antibody, IgG1, V domains shown)
# VH: B1 VH with Q103Y
# VL: B1 VL with V29I, V33L, A50S, R54L, N92T
# notes: IgG1
# B11: MH12 (antibody, IgG1, V domains shown)
# VH: B1 VH with Q103Y
# VL: B1 VL with V33L, R54L
# notes: IgG1
# B12: MH13 (antibody, IgG1, V domains shown)
# VH: B1 VH with Q103Y
# VL: B1 VL with V33L, R54L, S93A
# notes: IgG1
# B13: TTP2 (antibody, IgG1, V domains shown)
# VH: B1 VH with Q103Y
# VL: B1 VL with V29I, V33L, R54L, R96H
# notes: IgG1
# B14: MH5.36 (antibody, IgG1, V domains shown)
# VH: B1 VH with D31N, G54A, Y101W, Q103F, Y105E
# VL: B1 VL with V29I, V33L, R54L, N92A, S93N
# notes: IgG1
# B15: TTP6 (antibody, IgG1, V domains shown)
# VH: B1 VH with Q103Y
# VL: B1 VL with V33L, R54L, S93A, R96H
# notes: IgG1
# B16: MH5.32 (antibody, IgG1, V domains shown)
# VH: B1 VH with D31N, S55A, Y101W, Q103F, Y105E
# VL: B1 VL with V29I, V33L, R54L, N92A, S93N
# notes: IgG1
# B17: TTP4 (antibody, IgG1, V domains shown)
# VH: B1 VH with Q103Y
# VL: B1 VL with V33L, A50S, R54L, S93A, R96H
# notes: IgG1
# B18: MH6 (antibody, IgG1, V domains shown)
# VH: B1 VH with Q103Y
# VL: B1 VL with V29I, V33L, A50S, R54L, R96K
# notes: IgG1
# B19: TTP3 (antibody, IgG1, V domains shown)
# VH: B1 VH with Q103L
# VL: B1 VL with V33L, A50S, R54L, S93A, R96K
# notes: IgG1
# B20: chimeric anti-C-KIT antibody m37M, human IgG1 (antibody, V domains shown)
# VH: QVQLKQSGAELVRPGASVKLSCKASGYTFTDYYINWVKQRPGQGLEWIARIYPGSGNTYYNEKFKGKATLTAEKSSSTAYMQLSSLTSEDSAVYFCARGVYYFDYWGQGTTLTVSS
# VL: DIVMTQSQKFMSTSVGDRVSVTCKASQNVRTNVAWYQQKPGQSPKALIYSASYRYSGVPDRFTGSGSGTDFTLTISNVQSEDLADYFCQQYNSYPRTFGGGTKLEIKR
# B21: MH5.1 (antibody, IgG1, V domains shown)
# VH: B1 VH with D31N, S55T, Y101W, Q103Y
# VL: B1 VL with V29I, V33L, R54L, N92A, S93N
# notes: IgG1; also called C-KIT-MH5.1
# B22: MH5.34 (antibody, IgG1, V domains shown)
# VH: B1 VH with D31N, G54A, Y101W, Q103F, Y105S
# VL: B1 VL with V29I, V33L, R54L, N92A, S93N
# notes: IgG1; also called C-KIT-MH5.34
# B23: MH5.24 (antibody, IgG1, V domains shown)
# VH: B1 VH with Y32F, G54A, Y101W, Q103F, Y105T
# VL: B1 VL with V29I, V33L, R54L, N92A, S93N
# notes: IgG1; also called C-KIT-MH5.24
# B24: MH5.2 (antibody, IgG1, V domains shown)
# VH: B1 VH with Y32F, S55T, Y101W, Q103Y
# VL: B1 VL with V29I, V33L, R54L, N92A, S93N
# notes: IgG1; also called C-KIT-MH5.2
# B25: MH5.23 (antibody, IgG1, V domains shown)
# VH: B1 VH with Y32F, G54A, Y101W, Q103F, Y105S
# VL: B1 VL with V29I, V33L, R54L, N92A, S93N
# notes: IgG1; also called C-KIT-MH5.23
# B26: MH5.35 (antibody, IgG1, V domains shown)
# VH: B1 VH with D31N, G54A, Y101W, Q103F, Y105T
# VL: B1 VL with V29I, V33L, R54L, N92A, S93N
# notes: IgG1; also called C-KIT-MH5.35
# B27: MH5.15 (antibody, IgG1, V domains shown)
# VH: B1 VH with Y32F, S55T, Y101W, Q103F, Y105S
# VL: B1 VL with V29I, V33L, R54L, N92A, S93N
# notes: IgG1
# B28: MH5.6 (antibody, IgG1, V domains shown)
# VH: B1 VH with Y32H, S55T, Y101W, Q103F, Y105E
# VL: B1 VL with V29I, V33L, R54L, N92A, S93N
# notes: IgG1
# B29: MH5.4 (antibody, IgG1, V domains shown)
# VH: B1 VH with Y32H, S55T, Y101W, Q103F, Y105S
# VL: B1 VL with V29I, V33L, R54L, N92A, S93N
# notes: IgG1
# B30: MH5.10 (antibody, IgG1, V domains shown)
# VH: B1 VH with Y32H, S55A, Y101W, Q103F, Y105E
# VL: B1 VL with V29I, V33L, R54L, N92A, S93N
# notes: IgG1
# Target: T1, cynomolgus monkey C-KIT-Fc (cynomolgus monkey)
# T1 construct: also called cyno C-KIT-Fc
# Assay: HTRF competition vs Tb-h37M IgG1
row,Binder,IC50
1,B1,0.121 µg/mL
2,B2,0.059 µg/mL
3,B3,0.079 µg/mL
4,B4,0.101 µg/mL
5,B5,0.166 µg/mL
6,B6,0.081 µg/mL
7,B7,0.097 µg/mL

# Target: T2, human C-KIT-Fc (human, UniProt P10721 26-524)
# T2 construct: also called biotinylated human C-KIT-Fc; not shown: Fc part not described
# Assay: HTRF competition vs Tb-h37M IgG1
row,Binder,IC50
1,B1,0.046 µg/mL
2,B2,0.027 µg/mL
3,B3,0.031 µg/mL
4,B4,0.051 µg/mL
5,B5,0.066 µg/mL
6,B6,0.037 µg/mL
7,B7,0.031 µg/mL

# Target: T3, human C-KIT, full length, on cells (human, UniProt P10721 26-976)
# Assay: cell-based or functional assay
row,Binder,"TF-1 proliferation, fold less potent than h37M"
1,B8,244 fold

# Target: T3, human C-KIT, full length, on cells
# Assay: cell-based or functional assay
# Remark: another data set of the same source
Binder,Human C-KIT CHO FabZAP IC50 (pM),TF-1 FabZAP IC50 (pM),TF-1 proliferation IC50
B8,12.6 pM,53.7 pM,26.3 nM

# Target: T4, cynomolgus monkey C-KIT, full length, on CHO-K1 cells (cynomolgus monkey)
# Assay: cell-based or functional assay
row,Binder,Cyno C-KIT CHO FabZAP IC50 (pM)
1,B8,13.5 pM

# Target: T2, human C-KIT-Fc
# Assay: HTRF competition on human C-KIT-Fc against terbium-labelled h37M IgG1
row,Binder,binding result
1,B9,binds
2,B10,binds
3,B11,binds
4,B12,binds

# Target: T2, human C-KIT-Fc
# Assay: direct ELISA;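 further: Plate-coated C-KIT-Fc (1 µg/ml) probed with antibodies for 1 hr, bound IgG detected via anti-human kappa-HRP and TMB, absorbance measured at 450 nm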
row,Binder,binding result
1,B13,binds
2,B14,binds
3,B15,binds
4,B16,binds
5,B17,binds
6,B18,binds
7,B19,binds

# Target: T3, human C-KIT, full length, on cells
# Assay: flow cytometry, C-KIT-transfected CHO-K1 cells, IgG1 format
row,Binder,EC50 (read off the curve)
1,B20,~0.2 µg/mL
2,B21,~0.2 µg/mL
3,B22,~0.2 µg/mL
4,B23,~0.2 µg/mL
5,B24,~0.2 µg/mL
6,B25,~0.2 µg/mL
7,B26,~0.1 µg/mL

# Target: T1, cynomolgus monkey C-KIT-Fc
# Assay: direct titration ELISA on coated C-KIT-Fc, IgG1 format
row,Binder,EC50 (read off the curve)
1,B20,~0.1 µg/mL

# Target: T4, cynomolgus monkey C-KIT, full length, …
# Assay: flow cytometry, C-KIT-transfected CHO-K1 cells, IgG1 format
row,Binder,EC50 (read off the curve)
1,B20,~0.2 µg/mL
2,B21,~0.2 µg/mL
3,B22,~0.2 µg/mL
4,B23,~0.2 µg/mL
5,B24,~0.2 µg/mL
6,B26,~0.2 µg/mL

# Target: T3, human C-KIT, full length, on cells
# Assay: as above
# Remark: another data set of the same source
row,Binder,binding result
1,B13,binds
2,B15,binds
3,B9,binds
4,B10,binds
5,B17,binds
6,B18,binds
7,B19,binds
8,B11,binds
9,B12,binds

# Target: T1, cynomolgus monkey C-KIT-Fc
# Assay: HTRF competition vs Tb-h37M IgG1
# Remark: another data set of the same source
row,Binder,IC50
1,B21,0.633 µg/mL
2,B22,0.532 µg/mL
3,B23,2.74 µg/mL
4,B24,0.254 µg/mL
5,B25,3.26 µg/mL
6,B26,0.785 µg/mL

# Target: T2, human C-KIT-Fc
# Assay: HTRF competition vs Tb-h37M IgG1
# Remark: another data set of the same source
row,Binder,IC50
1,B21,0.684 µg/mL
2,B22,0.839 µg/mL
3,B23,2.2 µg/mL
4,B24,0.272 µg/mL
5,B25,2.02 µg/mL
6,B26,2.05 µg/mL

# Target: T2, human C-KIT-Fc
# Assay: direct titration ELISA on coated C-KIT-Fc, IgG1 format
row,Binder,binding result
1,B27,binds
2,B28,binds
3,B29,binds
4,B30,binds
